Measurements: the supplement of paper PMC12042874
± gives the uncertainty stated by the source.

assay: amyloid nucleation score (Sup35N fusion, yeast selection) (log enrichment); library NNK2; higher = more nucleation; inactive = no reads after selection
Method in brief: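 Nucleation score: DiMSum log enrichment of output over input reads, centred on the mode score of non-aggregating sequences. Only sequences with at least 100 input reads were kept. Reads came from Illumina sequencing of plasmid inserts before and after 7 days of growth at 30°C without adenine and uracil, in psi-negative yeast expressing Sup35N fused to peptides of 20 random codons after 24 hours of induction with 100 μM copper sulfate.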

Row | Substance | amyloid nucleation score
1 | SRHKFRSITFIEIHPMI | 0.012 ± 0.43
2 | SRHRLAMRTAGTRVVSCWG | 0.285 ± 0.3
3 | SRIEHMACLRRP | 0.496 ± 0.66
4 | SRIIMSFTSGLCDNHSKLKC | 1.68 ± 0.19
5 | SRKSFLLCILLCSITLPLAR | -1.09 ± 0.44
6 | SRNTVLYISLSFLTPYISCC | 8.221 ± 0.028
7 | SRTSSKAYTPYFVSRGHDRY | -0.903 ± 0.76
8 | SRVGFFS | 0.072 ± 1.1
9 | SRVIWHDSQLFVVFSSTAYK | 4.04 ± 0.041
10 | SRVSLYQML | -1.01 ± 0.34
11 | SRYACVRLICQVWPLWVGSG | 0.875 ± 0.43
12 | SRYGWMNRWKQPVQVVNPGF | 0.031 ± 0.38
13 | SRYIM | -1.06 ± 1.1
14 | SRYLSVIYYHRSNTWLRDRE | inactive
15 | SSCLIG | 0.28 ± 0.43
16 | SSFFLGLPPIREIGPWTTQR | 0.168 ± 0.27
17 | SSFFPRQ | -0.767 ± 0.76
18 | SSGRGIRLTLTVSIDRKKMG | -0.391 ± 0.4
19 | SSIGKGFSNSYGHAYCKHTW | -0.124 ± 0.76
20 | SSIKSSKIGAGGSL | -0.213 ± 0.79
21 | SSKFTHDYGGEDIVIDQDES | 0.14 ± 0.53
22 | SSKYYA | -0.131 ± 0.32
23 | SSLCIRSAL | -0.092 ± 0.63
24 | SSLDRKAVLAILSSTYLLRL | 2.33 ± 0.23
25 | SSLGA | -0.059 ± 0.5

Row | Substance | amyloid nucleation score
26 | SSMLPYSRHTIRVTKVRPPF | 0.561 ± 0.62
27 | SSMLYTYVRLMNMNNIYVAS | 0.737 ± 0.62
28 | SSNFRLSLWYSKMM | -0.246 ± 0.36
29 | SSNHTPTVVMHDHIPVLNFR | -0.628 ± 0.63
30 | SSNSEDDGNWMMLLSNKYRI | 0.559 ± 0.27
31 | SSPHWSK | -0.051 ± 0.37
32 | SSRRGNDGWRCGPSCGGCTG | 3.65 ± 0.082
33 | SSSAIHLRFNYCYHCFHSLT | 5.08 ± 0.065
34 | SSSDFEFSHVIKGAIFRLFT | -1.2 ± 1
35 | SSSEVSFSCYVVDVQLS | -0.603 ± 0.49
36 | SSSLLRSHRVGYVNLVVRED | -0.524 ± 0.55
37 | SSSREALCRKHDGVL | 0.905 ± 0.45
38 | SSSTFCCLWTFDTRVQFLVN | 7.39 ± 0.079
39 | SSSVDRTVHPLCYGFSLRRD | -0.168 ± 0.28
40 | SSTKIFHLL | inactive
41 | SSTPMCVPMYCS | inactive
42 | SSTVAGAIIE | 0.575 ± 0.18
43 | SSVAKVRGSVLYMGRSGWVG | 0.138 ± 0.8
44 | SSVQNCSVCVGGPMYREFSW | 4.994 ± 0.042
45 | SSWLYGVYSSYMWMLF | -1.45 ± 1
46 | SSYGWVMLMEDFW | -1.23 ± 0.62
47 | SSYTMEPPHVRA | 0.155 ± 1.1
48 | STDAILAGKFCSGH | -0.943 ± 0.55
49 | STFFKLD | -1.88 ± 1.1
50 | STFIMCDRTDPASIAIA | 0.6 ± 0.64

Row | Substance | amyloid nucleation score
51 | STFLKATYRSHRRHW | 0.962 ± 0.39
52 | STGSNFDESSKQCFAFICKK | inactive
53 | STIQGIKNRSYRHSSANRVN | 0.333 ± 0.61
54 | STLKPVNPGKVRH | 0.445 ± 0.57
55 | STLTFIVSSSDEGWSHYREA | 3.79 ± 0.07
56 | STMRSWAAC | 4.25 ± 0.091
57 | STMWTIGSWLKAGALSFGFL | -0.441 ± 0.36
58 | STNSDFLYQKNLPMVSSGNI | -0.408 ± 0.79
59 | STPHFH | -0.146 ± 1
60 | STRNSFPSDKAYLS | -0.605 ± 0.74
61 | STSGVKAVQISLSSVPWRWD | 2.34 ± 0.13
62 | STVFRQSLE | 0.269 ± 0.22
63 | STVTVGHNSHVCAFIF | -0.326 ± 0.54
64 | STVYIVCHGVILRVRMGPWL | 2.46 ± 0.12
65 | STWCRMANYLITCFVTKSRV | -1.33 ± 1.1
66 | STWDESWLHVLRWREFATLQ | 1.11 ± 0.22
67 | STWKNDHTHSCASWAKVCIT | -0.138 ± 0.34
68 | STWPCNQPSYVSV | 0.204 ± 0.28
69 | SVAASGFHVV | -1.57 ± 0.76
70 | SVADGAHFCYYNLYFGGFVY | 4.24 ± 0.081
71 | SVDIHGTFWHILYSIAPDQV | 1.75 ± 0.23
72 | SVFSYQYETKVGSQNLLEYI | -0.751 ± 1.1
73 | SVFVCTDIFK | 0.702 ± 0.52
74 | SVGRTESAQYRKTV | 0.568 ± 0.44
75 | SVIHREIELVFILI | 4.4 ± 0.087

Row | Substance | amyloid nucleation score
76 | SVIITIGLSIKSALRFRRFQ | 4.57 ± 0.058
77 | SVIRMLYD | -0.113 ± 0.45
78 | SVKCWRWFGA | 1.73 ± 0.27
79 | SVKCWVALAPYLGDRKDPVW | 2.94 ± 0.15
80 | SVLER | -0.147 ± 1.1
81 | SVLLRDMGILYVMRNYYWPL | -0.033 ± 0.76
82 | SVLLWWTHMYGLRMMKGVWG | 0.433 ± 0.15
83 | SVLQAYFRTWSQWIRYTCAG | -0.141 ± 0.31
84 | SVLSFMRYLCGWQA | 6.513 ± 0.053
85 | SVLTIRLKMQGHWLPGAAGC | 3.66 ± 0.15
86 | SVMSRNGNYVIVLGQCNCYM | 8.509 ± 0.022
87 | SVNILDTWDKVAPTKRPLES | 0.266 ± 0.49
88 | SVRPRPD | 0.617 ± 0.23
89 | SVSYSGDNH | -0.177 ± 1
90 | SVTCSSRCVSQRRFLVGPWN | -1.35 ± 0.41
91 | SVVLCTAFVQPC | 0.158 ± 0.45
92 | SVWGKD | 0.073 ± 0.63
93 | SVYANILFNKACMRFNVVNG | 0.23 ± 0.21
94 | SWFRMSVWSSLRAHMNASNT | -0.198 ± 0.28
95 | SWHQKSELKTCWSLAIQYHT | -0.191 ± 0.65
96 | SWKFNRASPSEMMCASNAWN | 0.404 ± 0.8
97 | SWLTRIC | -0.249 ± 0.63
98 | SWMNYRCRQDMSCCK | 0.908 ± 0.47
99 | SWRENFGWGICCSTVWPRCR | 1.86 ± 0.21
100 | SWRTWISRCYFTLDDVSKTA | 0.181 ± 0.43

Row | Substance | amyloid nucleation score
101 | SWSCRMEADSGFPAFIGAKK | -0.47 ± 1
102 | SWVTSYERLRLPLNCMSNDQ | -0.452 ± 0.42
103 | SWYLFGPDR | -0.433 ± 0.54
104 | SYDGERVI | 0.444 ± 0.28
105 | SYDLPPFI | 2.57 ± 0.11
106 | SYECCNKMQDINSMCGKLYW | 0.274 ± 1.1
107 | SYFKSTSARCFSFYLCCAKT | 6.224 ± 0.05
108 | SYFMTLIVPGRLLWIDLEGV | -0.823 ± 0.63
109 | SYIICELNQLLGFKNWHKTC | 2.83 ± 0.068
110 | SYLDILCVRIVSHHCSVSSK | 0.112 ± 0.46
111 | SYLHNSN | -1.26 ± 0.78
112 | SYMFDSEVQVRTDFLLFCYI | 0.346 ± 0.17
113 | SYNDWGFMKVGCL | -0.686 ± 0.39
114 | SYNRSKCNSTRLMLKSKTAH | 1.51 ± 0.47
115 | SYPFYVFSSNASSTAVIKLT | 1.07 ± 0.19
116 | SYSSPHRINGCVIRP | -0.084 ± 0.54
117 | SYVGICGAMNLCSETVSCMV | -0.977 ± 0.41
118 | SYVGVSNGRVVWVRVMANSK | inactive
119 | SYVIGGGSMGQARDRCLSNA | 1.11 ± 0.23
120 | SYVIP | -1.06 ± 1
121 | SYVSIWLACWLISFNWSGNG | 0.713 ± 0.58
122 | SYYISHYMSVWISLTDSGCY | -0.14 ± 0.56
123 | SYYYEGGPCWIEDLHGNVYV | 0.183 ± 0.64
124 | TAKDAFMFQGLASLS | inactive
125 | TARLLSPQ | -0.376 ± 0.76

Row | Substance | amyloid nucleation score
126 | TASKILSGIASYDSRIIQPE | -0.447 ± 0.23
127 | TASWNWLGIVRAGF | 1.08 ± 0.27
128 | TCATTDGVR | 1.04 ± 0.21
129 | TCCRLILYGILINNLRAWSH | 4.01 ± 0.073
130 | TCELYESHVGTFLHVSSNGT | 1.23 ± 0.12
131 | TCFMRCRTCNLRVIHSDVF | 5.546 ± 0.048
132 | TCGRYSYSWVFSESKS | inactive
133 | TCIGHFSNSQYN | inactive
134 | TCLVCVTEVAHDSHLNRVSH | 7.08 ± 0.082
135 | TCQPGRLALNAKERGSGDRL | 0.482 ± 0.3
136 | TDLWSNYLSGNLVENFITCL | -1.96 ± 1.1
137 | TDNMDEMDREYLSCHKFCFG | 3.69 ± 0.045
138 | TDVIYYGYLSRRLQVYVLPS | -1.55 ± 1.1
139 | TECYLDVHLLHCRCALRSTP | 6.83 ± 0.069
140 | TEIKSCKDNTHVHMHSLIRA | 0.384 ± 0.43
141 | TFEYCSLYVGCNQGNLVITT | 6.575 ± 0.041
142 | TFGLWPPQGMAIRGMRVNMN | inactive
143 | TFIVMKIHYRFKVKLICQTC | 0.681 ± 0.46
144 | TFLIGTV | -1.01 ± 0.5
145 | TFNVPKMESVRPPG | 0.796 ± 0.52
146 | TFPSISTFARSLFFVYQVYP | -1.13 ± 1.1
147 | TFQSYRDESFSWSRLVSSQR | -0.477 ± 0.26
148 | TFRAMAFVIFAGWLIRYDRR | inactive
149 | TFRRTVNGNMRGQMPTNWAF | 0.537 ± 0.22
150 | TFSFFATVDQMFCCVGRCEW | 8.132 ± 0.03

Row | Substance | amyloid nucleation score
151 | TFTGLFKKLI | inactive
152 | TFVKGKMFNLTRVWVLPYWT | 0.318 ± 0.46
153 | TGALHWVNAYVLFRKVCKGM | 0.297 ± 0.26
154 | TGDCC | 0.32 ± 0.33
155 | TGFCGRHYDLSSSTEDLYLL | 0.606 ± 0.8
156 | TGFSLVFSWFFLNG | 3.68 ± 0.099
157 | TGGISYLD | inactive
158 | TGLAIGCFLVCSVLYGDR | 3.17 ± 0.13
159 | TGLVMVHSTRVPKRLGMLCL | 0.967 ± 0.33
160 | TGLWDVCQVLIRFRNVFWRN | 3.06 ± 0.079
161 | TGRTTF | inactive
162 | TGTPYRF | 1.11 ± 0.23
163 | THMYCIMVYRRYSGSVGLGY | 0.127 ± 0.77
164 | THTSLLSLVP | -0.291 ± 0.76
165 | THVECALMTYPDVYSDEGFI | -0.001 ± 0.32
166 | TIENLNLFWF | 5.73 ± 0.06
167 | TIIRDFSWLHLGFPRACIIT | -0.976 ± 0.64
168 | TILWEVVGAL | 0.091 ± 0.17
169 | TIQRRQFVNPDSVVMLRINY | -0.704 ± 0.76
170 | TISLPYHHKVSRAMNSRF | -0.028 ± 0.62
171 | TISLRGDMDSSCKGIEGSSL | -0.316 ± 1.1
172 | TITMFHYLRSLSGNSDYGLG | 2.31 ± 0.1
173 | TIWFFFL | 7.075 ± 0.043
174 | TKCVFIVCRLYVFDMVGLYV | -0.573 ± 0.78
